The record followed here is the Immune Epitope Database (IEDB).

In general, Kd refers to the constant that tells how readily two partners part at equilibrium. As a reminder, the IC50 is the concentration that inhibits the measured activity by half. Read a high IC50 as weaker potency in that assay.

In assay [1] the target is HLA-A*01:01. The assay can be described thus: IEDB peptide-MHC binding, purified MHC/direct/fluorescence; filed as Kd, often an IC50 or EC50 that approximates it; ≥ and ≤ were set here for values at or beyond the usual limits of such assays.
Assay [2] has as its target HLA-A*30:01. The assay is described as follows: IEDB peptide-MHC binding, purified MHC/competitive/radioactivity; filed as Kd, often an IC50 or EC50 that approximates it; ≥ and ≤ were set here for values at or beyond the usual limits of such assays.
For assay [3], the target named is HLA-B*44:02. The description is as above. To be noted: source organism: Dengue virus 2 Jamaica/1409/1983.
In assay [4] the target is HLA-B*40:01. The assay is described as follows: IEDB peptide-MHC binding, purified MHC/direct/fluorescence; filed as Kd, often an IC50 or EC50 that approximates it; ≥ and ≤ were set here for values at or beyond the usual limits of such assays.
The target in assay [5] is HLA-A*02:01. The description is as above. To be noted: source organism: Salmonella enterica subsp. enterica serovar Typhimurium.
Assay [6] concerns the target HLA-A*69:01. The description is as above. To be noted: source organism: Salmonella enterica subsp. enterica serovar Typhimurium.
In assay [7] the target is HLA-B*58:01. The description is as above. To be noted: source organism: Salmonella enterica subsp. enterica serovar Typhimurium.
Assay [8] addresses HLA-A*11:01. Described as above.
Assay [9] has as its target HLA-A*03:01. The assay can be described thus: IEDB peptide-MHC binding, purified MHC/competitive/radioactivity; filed as Kd, often an IC50 or EC50 that approximates it; ≥ and ≤ were set here for values at or beyond the usual limits of such assays. To be noted: source organism: Dengue virus 2 Jamaica/1409/1983.
For assay [10], the target named is HLA-A*11:01. The description is as above. To be noted: source organism: Dengue virus 2 Jamaica/1409/1983.
Assay [11] deals with HLA-A*02:01. The assay is described as follows: IEDB peptide-MHC binding, purified MHC/competitive/fluorescence; ≥ and ≤ were set here for values at or beyond the usual limits of such assays. To be noted: source organism: Zaire ebolavirus.
In assay [12] the target is HLA-A*24:02. The description is as above.
The target of assay [13] is HLA-A*02:02. The assay can be described thus: IEDB peptide-MHC binding, purified MHC/competitive/radioactivity; filed as Kd, often an IC50 or EC50 that approximates it; ≥ and ≤ were set here for values at or beyond the usual limits of such assays. To be noted: source organism: Vaccinia virus WR.
Assay [14] addresses HLA-A*02:03. Described as above. To be noted: source organism: Vaccinia virus WR.
The target of assay [15] is HLA-A*02:06. The assay is described as above. To be noted: source organism: Vaccinia virus WR.
The target in assay [16] is HLA-A*23:01. The description is as above.
For assay [17], the target named is HLA-A*30:02. The assay is described as above.
Assay [18] deals with HLA-A*24:02. Described as above.
Assay [19] addresses HLA-B*46:01. The assay is described as follows: IEDB peptide-MHC binding, purified MHC/competitive/fluorescence; filed as Kd, often an IC50 or EC50 that approximates it; ≥ and ≤ were set here for values at or beyond the usual limits of such assays. To be noted: source organism: Yellow fever virus.
The target of assay [20] is HLA-A*01:01. The assay is described as follows: IEDB peptide-MHC binding, purified MHC/competitive/radioactivity; filed as Kd, often an IC50 or EC50 that approximates it; ≥ and ≤ were set here for values at or beyond the usual limits of such assays.
The mark [21] stands for this setting: source organism: Vaccinia virus WR.
Setting [22] is: source organism: Dengue virus 2 Jamaica/1409/1983.
Setting [23] is: source organism: Zaire ebolavirus.
[24] abbreviates: source organism: Sudan ebolavirus.
[25] abbreviates: source organism: Dengue virus 4 Philippines/H241/1956.
The mark [26] stands for this setting: source organism: Dengue virus 1 Brazil/97-11/1997.
[27] abbreviates: source organism: Dengue virus 3 Martinique/1243/1999.

For KSSLEVYIY, in assay [1] (source organism: Orthohantavirus hantanense), the Kd is 0.158 µM.
Take KVKKLNRCA: the Kd in assay [2] (setting [21]) was 0.00312 µM.
As for KVKWLQNSV, in [2] (source organism: Vaccinia virus Copenhagen), the dissociation constant Kd amounted to 0.000497 µM.
For the sequence LENLMWKQI, the Kd in assay [3] is 0.0222 µM.
For LEVPAMGVL, the Kd in [4] (source organism: Mycobacterium tuberculosis) turned out to be 0.025 µM.
With LGYPFAWFL, the dissociation constant (Kd) in assay [5] was determined as 0.831 µM; in [6], 0.307 µM; in assay [7], 0.102 µM.
For LTLKGTSYK, the Kd in [8] (source organism: Yellow fever virus) came to 0.0056 µM.
As to LTSRATWAK, the Kd in assay [9] worked out at 0.0586 µM; in [10] it was 0.0448 µM; in [2] (setting [22]), 0.176 µM.
Turning to MRTNFLIKF, the 50% inhibitory concentration (IC50) was at least 673 µM in assay [11] and 4.17 µM in assay [12] (setting [23]).
As to MTSTRTIIL, the dissociation constant Kd came to 1.34 µM in assay [13], 0.84 µM in assay [14], 6.79 µM in assay [15] and 0.267 µM in [2] (setting [21]).
In assay [1] (source organism: Salmonella enterica subsp. enterica serovar Typhimurium), NSRHNAQHK displayed a Kd of at least 20 µM.
In assay [12] (setting [23]), NYEAGEWAE yielded an IC50 of 13.4 µM.
In turn, NYTENTSSY yielded a half-maximal inhibitory concentration (IC50) in assay [12] (setting [24]) of 6.23 µM.
Turning to PFARLLNLS, the figures for the IC50 in [11] and in [12] (setting [23]) were at least 309 µM and 15.8 µM, respectively.
In assay [12] (setting [21]), PFIRNPNKM came in with an IC50 of 0.0658 µM.
Regarding RGRIGRNPA, in [2] (setting [25]), the Kd turned out to be 0.0323 µM.
Turning to RHERGRPLLF, the Kd in [16] (setting [25]) was 0.248 µM.
Turning to RLKDYQHFV, the equilibrium dissociation constant (Kd) in assay [2] (setting [21]) was found to be 0.000394 µM.
In [12] (setting [24]), RRWGGTCRI displayed an IC50 of 0.708 µM.
Consider RTLAKEGIK, for which the Kd in assay [9] was found to be 0.03 µM; in assay [2] (setting [22]) it was 0.217 µM.
With RVFNEYGFV, the equilibrium dissociation constant (Kd) in assay [2] (setting [21]) was 0.142 µM.
Turning to SEFCDMLRL, in assay [4] (source organism: Mammarenavirus guanaritoense), the Kd came out at 0.0842 µM.
For SIGKMLESTY, the Kd in assay [17] (setting [25]) came out at 1.56 µM.
As to STRVGMGEA, the dissociation constant (Kd) in assay [2] (setting [26]) came to 0.00502 µM.
With SVKCTHPLV, the Kd in assay [2] (setting [21]) worked out at 0.000968 µM.
On to SWHYDQDHPY, for which the Kd in [17] (setting [22]) was at least 69.7 µM.
As for SYNDYFNVL, the concentration for half-maximal inhibition (IC50) in assay [12] (source organism: Vaccinia virus) is 0.0983 µM.
As to SYTQMCDHRL, the dissociation constant (Kd) in [18] (setting [26]) came out at 0.184 µM.
For the sequence TAVDFGNSY, the equilibrium dissociation constant (Kd) in [19] worked out at 0.116 µM.
TPKGPKVKY returned a Kd in assay [8] (source organism: SARS-CoV1) of at least 46.1 µM.
TYQNKVVKV: in assay [16] (setting [27]), the Kd was 6.52 µM.
Take VSSWEEVPY: the Kd in assay [20] (setting [26]) worked out at 0.269 µM; in assay [17] (setting [26]), 1.86 µM.
On to VTRKHMILV, for which, in assay [2] (setting [25]), the dissociation constant (Kd) was 0.0194 µM.
Consider VTTWENVPY, for which the Kd in [20] (setting [27]) came out at 0.59 µM; in assay [17] (setting [27]) it was 0.0109 µM.
Consider VTYKCPLLV, for which, in assay [20] (source organism: Dengue virus 4 Dominica/814669/1981), the Kd worked out at 2.19 µM.
Turning to WFFDLPLPW, the Kd in [16] (setting [27]) was determined as 0.024 µM; in [18] (setting [27]) it was 0.0622 µM.
As for WFFDLPLPWT, the Kd in [2] (setting [27]) worked out at 16.3 µM.
Regarding WVIILFQRT, the concentration for half-maximal inhibition (IC50) in assay [12] (setting [23]) is at least 1990 µM.
YTDFPCQYV: the Kd in [20] (source organism: Homo sapiens) amounted to 0.0018 µM.
Take YTRVLKPSV: the equilibrium dissociation constant (Kd) in [2] (setting [21]) is 0.738 µM.
With YWVSNASGNI, the dissociation constant Kd in assay [16] (setting [22]) was determined as 1.33 µM.
Regarding YYMATLKNVT, in [18] (setting [25]), the Kd amounted to 1.54 µM.
